Data: patent US20260083749A1, “ANTI-CD123 IMMUNOCONJUGATES FOR THE TREATMENT OF ACUTE MYELOID LEUKEMIA” (ImmunoGen, Inc., priority 2024, published 2026)

Experiments:
[1] = tested on: AML patients; conditions: published for other AML therapies; cited from earlier work
[2] = tested on: AML xenografts; conditions: background statement; cited from earlier work
[3] = tested on: patients with R/R AML; test: Phase 1/2 trial of pivekimab sunirine monotherapy Q3W: safety (TEAEs, SAEs, DLTs); type: in vivo, human; conditions: N= 3/91; dose levels four- to ten-fold higher per cycle than the RP2D
[4] = tested on: patients with R/R AML; test: Phase 1/2 trial of pivekimab sunirine monotherapy Q3W: anti-leukemia responses; type: in vivo, human; conditions: for Median time to first CCR (CR/CRh/CRi): range
Source text: (§1) Patients with AML were enrolled into a phase 1/2 clinical trial of pivekimab sunirine. Key inclusion and exclusion criteria were as follows.
• Patients ≥18 years old • R/R AML • Confirmation of CD123 positivity on flow cytometry or immunohistochemistry (IHC). Patients who received prior CD123-targeting agents were allowed as long as the blasts still had detectable CD123 expression. • Eastern Cooperative Oncology Group (ECOG) performance status ≤1. […] Patients with a PCHM were eligible as long as no current therapy was still required for the second malignancy (e.g., MDS, CMML). Patients with a nonhematologic prior malignancy were in remission from the prior malignancy.
(§2) Patients with R/R AML (n=68) were treated with pivekimab sunirine once every 3 weeks (Q3W; on day 1 of a 3-week cycle).
(§3) The trial included a dose-escalation phase and a dose-expansion phase. All patients in both phases received intravenous doses of pivekimab sunirine on day 1 of a 21-day cycle as a <30-minute outpatient infusion. Lyophilized pivekimab sunirine was reconstituted using […] of water for injection. Planned treatment consisted of 2 cycles (6 weeks). Additional cycles, up to 10 total, were administered for patients deriving benefit from this regimen. CNS prophylactic intrathecal chemotherapy was administered. Patients received 8 mg dexamethasone on the day before any pivekimab sunirine dose. Patients also received 25-50 mg diphenhydramine, 325-650 mg acetaminophen or paracetamol, and 8 mg dexamethasone before each pivekimab sunirine infusion.
(§4) In the dose-escalation phase, patients received doses of pivekimab sunirine starting at 0.015 mg/kg with five escalations (n=38): 0.015 mg/kg (n=3), 0.045 mg/kg (n=9), 0.09 mg/kg (n=12), […] (n=7), 0.3 mg/kg (n=5), and 0.45 mg/kg (n=2).
Anti-leukemia responses were assessed per International Working Group (IWG) criteria 2003 (Cheson B D, et al. Revised recommendations of the International Working Group for Diagnosis, Standardization of Response Criteria, Treatment Outcomes, and Reporting Standards for Therapeutic Trials in Acute Myeloid Leukemia. J Clin Oncol 2003; 21(24): 4642-9) and European LeukemiaNet (ELN) response criteria 2017 (Dohner H, et al. Diagnosis and management of AML in adults: 2017 ELN recommendations from an international expert panel. Blood 2017; 129(4): 424-47) as composite complete remission (CCR) rate (defined as CR without minimal residual disease [CRMRD−]+CR+CRh+CR with incomplete recovery CRi]). Overall response rate (ORR) was defined as CRMRD−+CR+CRh+CRi+morphologic leukemia-free state (MLFS) +partial response (PR). Duration of overall response (DOR) was also evaluated.
Response assessments were performed in bone marrow aspirates (BMAs) for differential assessments taken on Cycle 1, Day 21±7 days. Subsequent BMAs were performed approximately every 1 to 2 cycles as clinically indicated, and at the 30-Day Follow-up visit. Data was also collected in the event BMAs were performed more frequently. No repeat bone marrow was necessary if lack of response or PD could be unequivocally diagnosed from peripheral blood tests or if the bone marrow test was considered noncontributory at any time point.

[5] = tested on: normal marrow progenitors; conditions: background statement; cited from earlier work
[6] = tested on: patients with R/R AML; test: Phase 1/2 trial of pivekimab sunirine monotherapy Q3W: safety (TEAEs, SAEs, DLTs); type: in vivo, human
Procedure: as §1, §2, §3
Following preparation, IMGN632 (or pivekimab sunirine (pvek)) was administered by IV syringe pump. Overall length of infusion was varied depending on dose and patient tolerability. Initially, the study drug was administered at a rate of 0.165 mg/min ([…]); and, after 30 minutes, if well tolerated, the rate was increased to 0.33 mg/min. Subsequent infusions were delivered at the highest tolerated rate. Before and following infusion, the line was flushed with 5% dextrose to ensure delivery of the full dose. Patients were carefully observed during each infusion and vital signs were monitored. Patients remained in the clinic under observation for 4 hours after the first infusion and for at least 1 hour after each subsequent infusion.
as §4
Based on nonclinical pharmacology, clinical safety, anti-leukemia activity, PK, and PD assessments during the dose-escalation phase, two cohorts were established for the dose expansion phase. • Cohort 1: Patients with relapsed AML received 0.045 mg/kg (escalation dose level 2) Q3W (n=20). • Cohort 2: Patients with relapsed or refractory (to non-intense therapies) AML received 0.09 mg/kg (escalation dose level 3) Q3W (n=10).
Safety was assessed by treatment-emergent adverse events (TEAEs), serious adverse events (SAEs), and dose-limiting toxicities (DLTs). The median duration of treatment in participants who received […] pivekimab sunirine Q3W (n=29) was 9 weeks (range, 3-110).

[7] = RP2D, prior intensive therapy, n= 5/22
[8] = RP2D, prior venetoclax exposure, n= 2/14

N#Cc1ccnc(N2C(=O)CC[C@H]2C(=O)N(c2cncc(F)c2)[C@H](C(=O)NC2CC(F)(F)C2)c2ccccc2Cl)c1 [ivosidenib]
Incidence of febrile neutropenia, published [1]: 29%

CCc1nc(C(N)=O)c(Nc2ccc(N3CCC(N4CCN(C)CC4)CC3)c(OC)c2)nc1NC1CCOCC1 [gilteritinib]
Incidence of febrile neutropenia, published [1]: 46%

B1: pivekimab sunirine (conjugate, chains of the INN, looked up)
VH: QVQLVQSGAEVKKPGASVKVSCKASGYIFTSSIMHWVRQAPGQGLEWIGYIKPYNDGTKYNEKFKGRATLTSDRSTSTAYMELSSLRSEDTAVYYCAREGGNDYYDTMDYWGQGTLVTVSS
VL: EIQMTQSPSSLSASVGDRVTITCRASQDINSYLSWFQQKPGKAPKTLIYRVNRLVDGVPSRFSGSGSGNDYTLTISSLQPEDFATYYCLQYDAFPYTFGQGTKVEIK
modifications: sunirine payload (DNA-alkylating drug conjugate)
Antitumor activity in AML xenografts [2]: potent antitumor activity | Reversible VOD [3]: 3% | Best overall response CR, % ([4]; All Participants (n = 68)): (3) % | Best overall response CR, No. ([4]; All Participants (n = 68)): 2 No. | Best overall response CRh, % ([4]; All Participants (n = 68)): (3) % | Best overall response CRh, No. ([4]; All Participants (n = 68)): 2 No. | Best overall response CRi, % ([4]; All Participants (n = 68)): (6) % | Best overall response CRi, No. ([4]; All Participants (n = 68)): 4 No. | Best overall response MLFS, % ([4]; All Participants (n = 68)): (3) % | Best overall response MLFS, No. ([4]; All Participants (n = 68)): 2 No. | Best overall response PD, % ([4]; All Participants (n = 68)): (24) % | Best overall response PD, No. ([4]; All Participants (n = 68)): 16 No. | Best overall response PR, % ([4]; All Participants (n = 68)): (2) % | Best overall response PR, No. ([4]; All Participants (n = 68)): 1 No. | Best overall response SD, % ([4]; All Participants (n = 68)): (52) % | Best overall response SD, No. ([4]; All Participants (n = 68)): 35 No. | CCR rate (CR + CRh + CRi), % ([4]; All Participants (n = 68)): (12) % | CCR rate (CR + CRh + CRi), No. ([4]; All Participants (n = 68)): 8 No. | Median duration of CR ([4]; All Participants (n = 68)): 2.2 mo | Median duration of remission ([4]; All Participants (n = 68)): 2.0 mo | ORR (CR + CRh + CRi + MLFS + PR), No. ([4]; All Participants (n = 68)): 11 No. | Anti-leukemia activity versus CD123 expression ([4]; FIG. 3): anti-leukemia activity regardless of CD123 expression | ORR ([4]; RP2D, de novo (nonsecondary) AML, n= 6/18): 33% | CCR ([4]; RP2D, prior HSCT, n= 3/9): 33% | ORR ([4]; RP2D, prior HSCT, n= 3/9): 33% | CCR [4, 7]: 23% | ORR [4, 7]: 23% | CCR [4, 8]: 14% | ORR [4, 8]: 14% | CCR ([4]; RP2D, two prior lines, n= 3/15): 20% | ORR ([4]; RP2D, two prior lines, n= 4/15): 27% | CCR ([4]; RP2D, venetoclax-naive, n= 3/15): 20% | ORR ([4]; RP2D, venetoclax-naive, n= 4/15): 27% | Median duration of CCR (CR/CRh/CRi) ([4]; RP2D, 95% CI 1.64-not estimable): 2.27 months | Median time to first CCR (CR/CRh/CRi) ([4]; RP2D, 0.79-3.61): 2.04 months | Participants with decrease in bone marrow blasts ([4]; all dose levels and cohorts, n= 31/68): 46% | Median duration of CCR (CR/CRh/CRi) ([4]; all schedule A doses, 95% CI 1.02-3.55): 2.22 months | Median time to first CCR (CR/CRh/CRi) ([4]; all schedule A doses, 0.46-4.37): 1.76 months | Participants with >100% increase in BM blasts ([4]; cohort 1 and cohort 2 R/R AML, FIG. 1): 11 participants | Individual responses in participants with FLT3-ITD mutations ([4]; in vivo): ¼ | Individual responses in participants with IDH1 mutations ([4]; in vivo): ⅓ | Toxicity in normal marrow progenitors versus other DNA-targeting payloads [5]: less toxicity in normal marrow progenitors | Prolonged neutropenia (grade 3) considered related to pivekimab sunirine (DLT) ([6]; 0.3 mg/kg after 2 cycles): one | 30-day mortality rate ([6]; 2 deaths due to disease progression): 7% | Maximum tolerated dose (MTD) ([6]; 30-fold dose escalation, 0.015-[…] Q3W): no maximum tolerated dose (MTD) defined | Incidence of febrile neutropenia ([6]; all schedule A participants): 35% | Reversible VOD possibly related to pivekimab sunirine (DLT) ([6]; grade 3, 0.18 mg/kg after 2 cycles, grade 4, […] during cycle 1): two | Grade 4 IRRs ([6]; in vivo): no grade 4 IRRs occurred | IRRs ([6]; mostly tachycardia and/or chills with the first dose, primarily grade 1-2): 31% | Participants who experienced DLTs ([6]; of the 68 participants, all doses): Three | TEAEs leading to treatment discontinuation ([6]; seven of 68 participants): 10%
